Reference: patent US8420776 (US Dept. of Health and Human Services, dated 2013)

B1: GST fusion of the entire gp78 cytoplasmic tail (gp78C; residues 309-643 of SEQ ID NO:2) (other)
chain: IRRHKNYLRVVGNMEARFAVATPEELAVNNDDCAICWDSMQAARKLPCGHLFHNSCLRSWLEQDTSCPTCRMSLNIADNNRVREEHQGENLDENLVPVAAAEGRPRLNQHNHFFHFDGSRIASWLPSFSVEVMHTTNILGITQASNSQLNAMAHQIQEMFPQVPYHLVLQDLQLTRSVEITTDNILEGRIQVPFPTQRSDSIRPALNSPVERPSSDQEEGETSAQTERVPLDLSPRLEETLDFGEVEVEPSEVEDFEARGSRFSKSADERQRMLVQRKDELLQQARKRFLNKSSEDDAASESFLPLEGASSDPVTLRRRMLAAAAERRLQKQQTS
notes: also called gp78 cytoplasmic domain; not shown: glutathione S-transferase (GST) fusion partner, N-terminal (pGEX type vector)
B3: Ube2G2/MmUbc7, in vitro translated and labelled with 35S-methionine (enzyme)
chain: MAGTALKRLMAEYKQLTLNPPEGIVAGPMNEENFFEWEALIMGPEDTCFEFGVFPAILSFPLDYPLSPPKMRFTCEMFHPNIYPDGRVCISILHAPGDDPMGYESSAERWSPVQSVEKILLSVVSMLAEPNDESGANVDASKMWRDDREQFYKIAKQIVQKSLGL
modifications: 35S-methionine label
notes: Translated in wheat germ or rabbit reticulocyte lysate; also called in vitro translated Ube2G2

What was measured:
[1] = biological target: B3; test: GST pull-down, E2 translated in wheat germ and labelled with 35S-Met, equal counts
[2] = biological target: T1, lysine 48-linked (K48) tetra-ubiquitin (UniProt P0CG48 1-76, four ubiquitins joined by lysine 48 isopeptide links); test: GST pull-down, anti-ubiquitin immunoblot
T1 construct: the monomer is its first 76 residues

[3] = biological target: B1; test: GST pull-down
[4] = biological target: T2, N-terminal GFP fusion of gp78 residues 574-611 (GFP-574-611) (human, UniProt P42212 1-238 = GFP); test: co-immunoprecipitation with GFP fusion from HEK 293T cells
T2 construct: the vector encodes the enhanced variant; also called G2BD

[5] = biological target: T3, Myc-Ube2G2, co-expressed in HEK 293T cells (human (100% identical to mouse MmUbc7), UniProt P60604 1-165); test: anti-Myc immunoprecipitation from co-transfected cells, anti-gp78 immunoblot
T3 construct: Plasmid described in Tiwari and Weissman, 2001; also called Myc-MmUbc7; myc-tagged MmUbc7/Ube2G2
T3 sequence: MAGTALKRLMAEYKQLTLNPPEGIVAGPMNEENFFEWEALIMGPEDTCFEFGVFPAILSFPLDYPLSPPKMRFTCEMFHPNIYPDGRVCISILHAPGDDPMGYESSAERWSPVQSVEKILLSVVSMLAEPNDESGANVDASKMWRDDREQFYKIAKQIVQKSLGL

[6] = biological target: T4, GST fusion of the cytoplasmic domain of yeast Cue1p (Cue1p 24-203) (yeast, UniProt P38428 24-203); test: GST pull-down, E2 in vitro translated in wheat germ
T4 construct: range 24-203; also called GST-Cue1p 24-203; not shown: glutathione S-transferase (GST) fusion partner, N-terminal (pGEX4T-1)
T4 sequence (looked up): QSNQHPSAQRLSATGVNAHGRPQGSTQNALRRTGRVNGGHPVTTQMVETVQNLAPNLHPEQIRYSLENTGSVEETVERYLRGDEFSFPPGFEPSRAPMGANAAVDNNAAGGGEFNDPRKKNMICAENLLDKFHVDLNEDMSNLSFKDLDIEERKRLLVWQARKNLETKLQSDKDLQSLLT

[7] = biological target: B1; test: as above
[8] = biological target: UbcH5B, in vitro translated and labelled with 35S-methionine (human, UniProt P62837 1-147); test: GST pull-down, E2 translated in wheat germ and labelled with 35S-Met, equal counts
Sequence of UbcH5B, in vitro translated and labelled with 35S-methionine (P62837 whole entry): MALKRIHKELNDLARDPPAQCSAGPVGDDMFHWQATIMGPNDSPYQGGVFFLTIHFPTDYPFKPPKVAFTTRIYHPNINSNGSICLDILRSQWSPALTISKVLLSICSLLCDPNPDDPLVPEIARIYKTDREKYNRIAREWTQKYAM

Q: With B1 as the binder, how does the “amount bound (% of input)” value [1] read?
A: ~10 % of input

B2: GST-gp78Cuem2: gp78 C-terminal region with VLQDL to RLQVD mutation of residues 476 to 480 (other)
chain: IRRHKNYLRVVGNMEARFAVATPEELAVNNDDCAICWDSMQAARKLPCGHLFHNSCLRSWLEQDTSCPTCRMSLNIADNNRVREEHQGENLDENLVPVAAAEGRPRLNQHNHFFHFDGSRIASWLPSFSVEVMHTTNILGITQASNSQLNAMAHQIQEMFPQVPYHLRLQVDQLTRSVEITTDNILEGRIQVPFPTQRSDSIRPALNSPVERPSSDQEEGETSAQTERVPLDLSPRLEETLDFGEVEVEPSEVEDFEARGSRFSKSADERQRMLVQRKDELLQQARKRFLNKSSEDDAASESFLPLEGASSDPVTLRRRMLAAAAERRLQKQQTS
notes: not shown: glutathione S-transferase (GST) fusion partner, N-terminal (pGEX type vector)
Q: Does B2 bind [2]?
A: no binding (tested: 1 ug K48 tetra-ubiquitin)

Q: Does B3 bind [3]?
A: binds

B4: GST-gp78CCue-m1: complete C-terminal region of gp78 with MFP to GGR mutation of residues 467 to 469 (other)
chain: IRRHKNYLRVVGNMEARFAVATPEELAVNNDDCAICWDSMQAARKLPCGHLFHNSCLRSWLEQDTSCPTCRMSLNIADNNRVREEHQGENLDENLVPVAAAEGRPRLNQHNHFFHFDGSRIASWLPSFSVEVMHTTNILGITQASNSQLNAMAHQIQEGGRQVPYHLVLQDLQLTRSVEITTDNILEGRIQVPFPTQRSDSIRPALNSPVERPSSDQEEGETSAQTERVPLDLSPRLEETLDFGEVEVEPSEVEDFEARGSRFSKSADERQRMLVQRKDELLQQARKRFLNKSSEDDAASESFLPLEGASSDPVTLRRRMLAAAAERRLQKQQTS
notes: as for B2
Q: Does B4 bind [2]?
A: no binding (tested: 1 ug K48 tetra-ubiquitin)

B5: GST-gp78CCue-m1, 2: gp78 C-terminal region with both sets of Cue domain mutations (other)
chain: IRRHKNYLRVVGNMEARFAVATPEELAVNNDDCAICWDSMQAARKLPCGHLFHNSCLRSWLEQDTSCPTCRMSLNIADNNRVREEHQGENLDENLVPVAAAEGRPRLNQHNHFFHFDGSRIASWLPSFSVEVMHTTNILGITQASNSQLNAMAHQIQEGGRQVPYHLRLQVDQLTRSVEITTDNILEGRIQVPFPTQRSDSIRPALNSPVERPSSDQEEGETSAQTERVPLDLSPRLEETLDFGEVEVEPSEVEDFEARGSRFSKSADERQRMLVQRKDELLQQARKRFLNKSSEDDAASESFLPLEGASSDPVTLRRRMLAAAAERRLQKQQTS
notes: as for B2
Q: Does B5 bind [2]?
A: no binding (tested: 1 ug K48 tetra-ubiquitin)

B6: endogenous Ube2g1 of HEK 293T cells (enzyme, human, UniProt P62253 2-170, looked up)
chain: TELQSALLLRRQLAELNKNPVEGFSAGLIDDNDLYRWEVLIIGPPDTLYEGGVFKAHLTFPKDYPLRPPKMKFITEIWHPNVDKNGDVCISILHEPGEDKYGYEKPEERWLPIHTVETIMISVISMLADPNGDSPANVDAAKEWREDRNGEFKRKVARCVRKSQETAFE
Q: Does B6 bind [4]?
A: no binding

B7: full length gp78 with both Cue domain mutations (gp78Cue-m1, 2) (enzyme)
chain: MPLLFLERFPWPSLRTYTGLSGLALLGTIISAYRALSQPEAGPGEPDQLTASLQPEPPAPARPSAGGPRARDVAQYLLSDSLFVWVLVNTACCVLMLVAKLIQCIVFGPLRVSERQHLKDKFWNFIFYKFIFIFGVLNVQTVEEVVMWCLWFAGLVFLHLMVQLCKDRFEYLSFSPTTPMSSHGRVLSLLVAMLLSCCGLAAVCSITGYTHGMHTLAFMAAESLLVTVRTAHVILRYVIHLWDLNHEGTWEGKGTYVYYTDFVMELTLLSLDLMHHIHMLLFGNIWLSMASLVIFMQLRYLFHEVQRRIRRHKNYLRVVGNMEARFAVATPEELAVNNDDCAICWDSMQAARKLPCGHLFHNSCLRSWLEQDTSCPTCRMSLNIADNNRVREEHQGENLDENLVPVAAAEGRPRLNQHNHFFHFDGSRIASWLPSFSVEVMHTTNILGITQASNSQLNAMAHQIQEGGRQVPYHLRLQVDQLTRSVEITTDNILEGRIQVPFPTQRSDSIRPALNSPVERPSSDQEEGETSAQTERVPLDLSPRLEETLDFGEVEVEPSEVEDFEARGSRFSKSADERQRMLVQRKDELLQQARKRFLNKSSEDDAASESFLPLEGASSDPVTLRRRMLAAAAERRLQKQQTS
notes: Full length, expressed in cells; also called Cue12M
Q: Does B7 bind [5]?
A: binds

B8: full length gp78 with the E2-m2 mutation (gp78E2-m2) (enzyme)
chain: MPLLFLERFPWPSLRTYTGLSGLALLGTIISAYRALSQPEAGPGEPDQLTASLQPEPPAPARPSAGGPRARDVAQYLLSDSLFVWVLVNTACCVLMLVAKLIQCIVFGPLRVSERQHLKDKFWNFIFYKFIFIFGVLNVQTVEEVVMWCLWFAGLVFLHLMVQLCKDRFEYLSFSPTTPMSSHGRVLSLLVAMLLSCCGLAAVCSITGYTHGMHTLAFMAAESLLVTVRTAHVILRYVIHLWDLNHEGTWEGKGTYVYYTDFVMELTLLSLDLMHHIHMLLFGNIWLSMASLVIFMQLRYLFHEVQRRIRRHKNYLRVVGNMEARFAVATPEELAVNNDDCAICWDSMQAARKLPCGHLFHNSCLRSWLEQDTSCPTCRMSLNIADNNRVREEHQGENLDENLVPVAAAEGRPRLNQHNHFFHFDGSRIASWLPSFSVEVMHTTNILGITQASNSQLNAMAHQIQEMFPQVPYHLVLQDLQLTRSVEITTDNILEGRIQVPFPTQRSDSIRPALNSPVERPSSDQEEGETSAQTERVPLDLSPRLEETLDFGEVEVEPSEVEDFEARGSRFSKSADERAAAGGGRKDELLQQARKRFLNKSSEDDAASESFLPLEGASSDPVTLRRRMLAAAAERRLQKQQTS
notes: Full length, expressed in cells; also called ΔB in the context of the full length gp78
Q: Does B8 bind [5]?
A: no binding

B9: yeast Ubc7p, in vitro translated and labelled with 35S-methionine (enzyme, UniProt Q02159 1-165, looked up)
chain: MSKTAQKRLLKELQQLIKDSPPGIVAGPKSENNIFIWDCLIQGPPDTPYADGVFNAKLEFPKDYPLSPPKLTFTPSILHPNIYPNGEVCISILHSPGDDPNMYELAEERWSPVQSVEKILLSVMSMLSEPNIESGANIDACILWRDNRPEFERQVKLSILKSLGF
modifications: 35S-methionine label
Q: Does B9 bind [6]?
A: binds

Q: Does B9 bind [7]?
A: no binding

B10: Ube2G1, in vitro translated and labelled with 35S-methionine (enzyme, rat, UniProt P62255 1-170, looked up)
chain: MTELQSALLLRRQLAELNKNPVEGFSAGLIDDNDLYRWEVLIIGPPDTLYEGGVFKAHLTFPKDYPLRPPKMKFITEIWHPNVDKNGDVCISILHEPGEDKYGYEKPEERWLPIHTVETIMISVISMLADPNGDSPANVDAAKEWREDRNGEFKRKVARCVRKSQETAFE
modifications: 35S-methionine label
notes: also called rat Ubc7 (Ube2g1)
Q: Does B10 bind [6]?
A: no binding

Q: Does B10 bind [7]?
A: no binding

B11: GST-AO7 (92 to 259), the RING finger and surrounding regions of the E3 AO7 (other)
chain: QIHKISQALGHVAKEGLGTAMLYELIEKGKEILTDNNIPHGQCVICLYGFQEKEAFTKTPCYHYFHCHCLARYIQHMEQELTTQEQEQERQHVVTKQKAVGVQCPVCREPLVYDLASLKAAPEPQQPMELYQPSAESLRQQEELKLLYQRQQEKGGIIDLEAERNRYF
notes: range 92-259; also called A07; not shown: glutathione S-transferase (GST) fusion partner
Q: With B11 as the binder, how does the “amount bound (% of input)” value [8] read?
A: ~10 % of input
